Measured values reported in IntAct's records for PubMed 30058071.

Molecular target: SHANK3, Q9BYB0-1
Sequence (Q9BYB0 whole entry): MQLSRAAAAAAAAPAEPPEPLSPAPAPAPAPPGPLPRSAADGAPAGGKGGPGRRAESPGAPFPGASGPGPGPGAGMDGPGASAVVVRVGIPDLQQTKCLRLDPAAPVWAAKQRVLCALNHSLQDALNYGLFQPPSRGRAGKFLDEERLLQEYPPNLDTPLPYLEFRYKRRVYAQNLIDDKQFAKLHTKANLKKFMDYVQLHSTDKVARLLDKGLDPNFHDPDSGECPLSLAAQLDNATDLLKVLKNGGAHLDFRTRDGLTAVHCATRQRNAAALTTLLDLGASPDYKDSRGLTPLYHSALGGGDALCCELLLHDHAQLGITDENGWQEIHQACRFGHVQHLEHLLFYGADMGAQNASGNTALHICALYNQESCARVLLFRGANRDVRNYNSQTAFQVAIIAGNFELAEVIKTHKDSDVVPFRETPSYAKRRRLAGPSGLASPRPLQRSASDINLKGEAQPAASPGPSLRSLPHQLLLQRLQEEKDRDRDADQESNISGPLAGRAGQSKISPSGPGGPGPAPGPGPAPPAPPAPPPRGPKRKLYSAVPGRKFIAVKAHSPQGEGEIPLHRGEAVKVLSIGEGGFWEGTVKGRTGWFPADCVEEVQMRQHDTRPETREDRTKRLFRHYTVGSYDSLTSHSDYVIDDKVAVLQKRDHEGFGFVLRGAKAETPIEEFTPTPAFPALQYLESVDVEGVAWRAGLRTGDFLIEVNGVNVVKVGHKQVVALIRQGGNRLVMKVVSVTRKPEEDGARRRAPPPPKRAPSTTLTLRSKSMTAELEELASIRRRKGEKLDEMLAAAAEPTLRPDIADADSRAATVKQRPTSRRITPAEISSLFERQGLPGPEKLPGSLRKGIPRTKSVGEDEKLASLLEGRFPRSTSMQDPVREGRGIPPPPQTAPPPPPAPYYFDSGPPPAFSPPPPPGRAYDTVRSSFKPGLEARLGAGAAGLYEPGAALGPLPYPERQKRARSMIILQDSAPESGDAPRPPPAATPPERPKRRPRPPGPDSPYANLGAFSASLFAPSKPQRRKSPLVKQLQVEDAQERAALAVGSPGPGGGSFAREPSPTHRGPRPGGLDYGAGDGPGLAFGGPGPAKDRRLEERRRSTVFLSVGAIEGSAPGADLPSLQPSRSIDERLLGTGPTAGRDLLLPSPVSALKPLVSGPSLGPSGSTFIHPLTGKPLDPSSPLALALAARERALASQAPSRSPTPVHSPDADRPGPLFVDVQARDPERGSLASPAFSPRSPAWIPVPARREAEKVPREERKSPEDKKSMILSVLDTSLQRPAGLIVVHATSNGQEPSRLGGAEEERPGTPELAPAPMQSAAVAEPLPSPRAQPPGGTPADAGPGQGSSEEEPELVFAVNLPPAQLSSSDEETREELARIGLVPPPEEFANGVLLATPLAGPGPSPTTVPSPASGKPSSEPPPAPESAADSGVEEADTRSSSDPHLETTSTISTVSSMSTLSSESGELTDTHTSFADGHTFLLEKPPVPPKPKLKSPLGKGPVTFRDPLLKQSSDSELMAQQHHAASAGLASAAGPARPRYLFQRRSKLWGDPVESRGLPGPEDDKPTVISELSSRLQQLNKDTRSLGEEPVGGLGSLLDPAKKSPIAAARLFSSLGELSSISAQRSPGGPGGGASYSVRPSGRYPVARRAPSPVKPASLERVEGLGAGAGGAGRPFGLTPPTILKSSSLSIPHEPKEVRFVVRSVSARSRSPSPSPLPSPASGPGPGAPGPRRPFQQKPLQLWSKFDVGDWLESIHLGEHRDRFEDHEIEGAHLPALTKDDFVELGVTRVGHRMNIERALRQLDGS

## Voltage-dependent L-type calcium channel subunit alpha-1D (Homo sapiens), Q01668 R1908G
  effect of a mutation on the interaction: disrupting interaction strength
